For assay [1], the target named is T1, original PCSK9 (PCSK9 (human) recombinant protein, Abnova Cat No: H00255738-P01) (UniProt Q8NBP7 31-692). In words: ELISA; 1st experiment.
For assay [2], the target named is T1, original PCSK9 (PCSK9 (human) …). The experiment in a line: ELISA; 2nd experiment.
The target is the same in assay [3]. The experiment in a line: ELISA; mean of two experiments, ±0.000.
Assay [4] shares this target. The experiment in a line: ELISA; mean of two experiments, ±0.014.
Assay [5] shares this target. The experiment in a line: ELISA; mean of two experiments, ±0.028.

T1 sequence (Q8NBP7 other isoform, or with tags, fused parts or gaps): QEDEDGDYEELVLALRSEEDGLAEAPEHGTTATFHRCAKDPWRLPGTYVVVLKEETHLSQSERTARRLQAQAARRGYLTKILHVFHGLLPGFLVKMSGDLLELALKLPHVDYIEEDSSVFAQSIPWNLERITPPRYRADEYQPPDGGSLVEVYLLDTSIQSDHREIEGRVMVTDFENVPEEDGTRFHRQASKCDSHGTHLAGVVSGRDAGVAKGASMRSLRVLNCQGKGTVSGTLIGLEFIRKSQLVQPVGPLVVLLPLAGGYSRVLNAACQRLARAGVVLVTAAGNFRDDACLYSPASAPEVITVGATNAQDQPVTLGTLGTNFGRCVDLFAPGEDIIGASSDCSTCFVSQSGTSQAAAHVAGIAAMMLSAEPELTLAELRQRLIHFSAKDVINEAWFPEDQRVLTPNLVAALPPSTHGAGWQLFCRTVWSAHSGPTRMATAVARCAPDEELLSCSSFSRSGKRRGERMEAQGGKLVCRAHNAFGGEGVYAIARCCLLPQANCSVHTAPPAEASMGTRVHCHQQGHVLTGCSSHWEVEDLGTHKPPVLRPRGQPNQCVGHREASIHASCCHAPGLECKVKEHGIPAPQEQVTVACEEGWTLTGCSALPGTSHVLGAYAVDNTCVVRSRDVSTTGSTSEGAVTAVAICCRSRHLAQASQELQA

B1: hz7D1.11 IgG (antibody, V domains shown)
VH: QVQLVQSGAEVKKPGASVKVSCKASGFNIKDYYMHWVRQAPGQGLEWIGYIDPENGDTEYAPKFQGRATMTADTSISTAYMELSRLRSDDTAVYYCRSSPFTYWGQGTLVTVSS
VL: DVVMTQSPLSLPVTLGQPASISCKSSQSLLDSDGKTYLNWLQQRPGQSPRRLIYLVSKLDSGVPDRFSGSGSGTDFTLKISRVEAEDVGVYYCWQGTHFPQTFGGGTKVEIKR
For B1, the EC50 in assay [1], in assay [2] and in assay [3] was 0.13 µg/mL in each case.

B2: hz7D1.22 IgG (antibody, V domains shown)
VH: QVQLVQSGAEVKKPGASVKVSCKASGYTFKDYYMHWVRQAPGQGLEWMGYIDPENGDTEYAPKFQGRVTMTADTSISTAYMELSRLRSDDTAVYYCRSSPFTYWGQGTLVTVSS
VL: DVVMTQSPLSLPVTLGQPASISCKSSQSLLDSDGKTYLNWFQQRPGQSPRRLIYLVSKLDSGVPDRFSGSGSGTDFTLKISRVEAEDVGVYYCWQGTHFPQTFGGGTKVEIKR
In the case of B2, the EC50 in assay [1] was 0.19 µg/mL; in assay [2], 0.17 µg/mL; in assay [4], 0.18 µg/mL.

B3: ch7D1 IgG (antibody, V domains shown)
VH: EVKLVESGAELVRSGASVKLSCTASGFNIKDYYMHWVKQRPEQGLEWIGYIDPENGDTEYAPKFQGKATMTADTSSNTAYLQLSSLTSEDTAVYYCRSSPFTYWGQGTLVTVSA
VL: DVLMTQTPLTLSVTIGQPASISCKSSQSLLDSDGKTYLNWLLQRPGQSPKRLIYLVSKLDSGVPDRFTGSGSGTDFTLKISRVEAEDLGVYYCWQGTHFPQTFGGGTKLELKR
Consider B3, for which the EC50 in assay [1] came to 0.36 µg/mL; in assay [2], 0.4 µg/mL; in assay [5], 0.38 µg/mL.

Source of the values: US20230242673A1 (published 2023).
